Data from patent publication US20130108608.

Biological target: T1, recombinant human full-length TrpRS with C-terminal His6 tag
T1 chain: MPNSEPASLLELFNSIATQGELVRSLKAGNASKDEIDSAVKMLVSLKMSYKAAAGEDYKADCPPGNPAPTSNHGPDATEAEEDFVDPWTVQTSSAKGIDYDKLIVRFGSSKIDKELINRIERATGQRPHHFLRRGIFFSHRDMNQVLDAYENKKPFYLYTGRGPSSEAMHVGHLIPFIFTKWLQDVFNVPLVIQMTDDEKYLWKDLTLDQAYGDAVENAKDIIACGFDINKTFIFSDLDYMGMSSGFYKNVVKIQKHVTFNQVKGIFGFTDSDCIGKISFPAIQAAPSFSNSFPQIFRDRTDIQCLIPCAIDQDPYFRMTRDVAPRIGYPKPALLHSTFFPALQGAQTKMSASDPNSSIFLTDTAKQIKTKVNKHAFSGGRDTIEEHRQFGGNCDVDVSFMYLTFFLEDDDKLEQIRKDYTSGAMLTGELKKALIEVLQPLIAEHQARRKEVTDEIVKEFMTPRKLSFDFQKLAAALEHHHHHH

B1: PMN elastase (protein)
chain: IVGGRRARPHAWPFMVSLQLRGGHFCGATLIAPNFVMSAAHCVANVNVRAVRVVLGAHNLSRREPTRQVFAVQRIFENGYDPVNLLNDIVILQLNGSATINANVQVAQLPAQGRRLGNGVQCLAMGWGLLGRNRGIASVLQELNVTVVTSLCRRSNVCTLVRGRQAGVCFGDSGSPLVCNGLIHGIASFVRGGCASGLYPDAFAPVAQFVNWIDSIIQ
In the case of B1, the “cleavage of TrpRS by the protease, fragments on 12.5% SDS-PAGE” value is reported as “PMN elastase cleavage of a full-length TrpRS of about 53 kDa generated a major fragment of about 46 kDa (SEQ ID NO: 5, T1, having the C-terminal histidine tag, or an SY variant thereof) and a minor fragment of about 43.5 kDa”.
